Here are results for two molecules from patent publication US20220291215A1 (UNIVERSITY HEALTH NETWORK, published 2022).

Numbering of substitutions follows the chain as printed. Names may count otherwise.

Assay [1] deals with T1, recombinant 10x His-tagged CD4 protein (extracellular domain of human CD4, GS linker, 10x histidine tag) (human, UniProt P01730 26-390).
T1 construct: also called recombinant CD4; sCD4 (analyte)
As to the kind of experiment: biolayer interferometry.

The target of assay [2] is T1, recombinant 10x His-tagged CD4 protein …. As to the kind of experiment: biolayer interferometry KD against the previously estimated KD >2 mM between CD4 and HLA class II.
Assay [3] has the same target. As to the kind of experiment: biolayer interferometry (Octet Red), biotinylated DP4 on streptavidin sensors, CD4 as analyte, steady-state analysis. A general note: BLI is a label-free optical method that tracks binding on a fibre tip over time.

B1: biotinylated recombinant wild-type DP4 (extracellular domains of DPA1*01:03 and wild-type DPB1*04:01 with leucine zippers) (peptide-MHC)
MHC II alpha: IKADHVSTYAAFVQTHRPTGEFMFEFDEDEMFYVDLDKKETVWHLEEFGQAFSFEAQGGLANIAILNNNLNTLIQRSNHTQATNDPPEVTVFPKEPVELGQPNTLICHIDKFFPPVLNVTWLCNGELVTEGVAESLFLPRTDYSFHKFHYLTFVPSAEDFYDCRVEHWGLDQPLLKHWEAQEPIQMPETTETGGGGSLEIRAAFLRQRNTALRTEVAELEQEVQRLENEVSQYETRYGPLGGGKGSHHHHHHHHHH
MHC II beta: RATPENYLFQGRQECYAFNGTQRFLERYIYNREEFARFDSDVGEFRAVTELGRPAAEYWNSQKDILEEKRAVPDRMCRHNYELGGPMTLQRRVQPRVNVSPSKKGPLQHHNLLVCHVTDFYPGSIQVRWFLNGQEETAGVVSTNLIRNGDWTFQILVMLEMTPQQGDVYTCQVEHTSLDSPVTVEWKAQSDSARSKGGGGSLEIEAAFLERENTALETRVAELRQRVQRLRNRVSQYRTRYGPLGGGKGSGLNDIFEAQKIEWHE
notes: also called biotinylated wild-type DP4 (ligand)
B1: the binding result in assay [1] is “no binding (tested: 26 µM)”.

B2: biotinylated recombinant DP4^L112W/V141M (extracellular domains of DPA1*01:03 and DPB1*04:01 L112W/V (peptide-MHC)
MHC II alpha: B1 MHC II alpha
MHC II beta: B1 MHC II beta with L112W, V141M
notes: also called DPR^L112/V141M; biotinylated DP4^L112W/V141M (ligand)
Consider B2, for which the “fold improvement in the binding affinity” value in assay [2] was at least 200 fold. Also, the Kd in assay [3] stood at 8.9 µM.

A word on the Kd: it is a measure of binding affinity in units of concentration.
